Measured values published in paper PMC9352680, “A comprehensive thermodynamic model for RNA binding by the Saccharomyces cerevisiae Pumilio protein PUF4”.

T1: PUF4 RNA-binding domain (Saccharomyces cerevisiae, UniProt P25339 537-888)
T1 sequence: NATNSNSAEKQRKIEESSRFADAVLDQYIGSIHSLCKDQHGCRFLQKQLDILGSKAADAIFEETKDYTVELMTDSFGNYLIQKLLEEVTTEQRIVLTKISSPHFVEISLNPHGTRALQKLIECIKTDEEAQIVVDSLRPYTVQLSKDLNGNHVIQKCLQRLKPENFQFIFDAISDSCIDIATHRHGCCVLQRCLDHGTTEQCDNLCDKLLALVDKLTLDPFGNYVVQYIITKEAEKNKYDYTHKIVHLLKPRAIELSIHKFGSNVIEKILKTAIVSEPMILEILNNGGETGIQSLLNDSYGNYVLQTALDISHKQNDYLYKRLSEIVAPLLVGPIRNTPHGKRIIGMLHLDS


Target: T1, PUF4 RNA-binding domain
Assay: Mg; RNA-MaP; 20 mM Na-HEPES pH 7.4, 30 mM KOAc, 0.75 mM MgCl2, 0.1% Tween-20, 5% glycerol, 0.1 mg/mL BSA, 2 mM DTT; 25 C; 0.0125-409.6 nM protein
Settings: tags: N-His6-TEV cleaved; C-SNAP kept, Cy3B-labelled; label: tethered on chip by stalled RNA polymerase

Row | Binder | Kd
1 | Ib_S2_P3E.1_K3.1_C3.1_H3.1_A3.1_[A6T]_F3.1_[A8C]_T3.1 (ssRNA) RNA: UUUGAUUAAUAUGAUAUCGUUCUUUCUUGUAUUUCUUCUUUCUCGAUAUCAUAUUAAUCUUU | 29.3 nM
2 | Ib_S2_P3E.1_K3.1_C3.1_H3.1_A3.1_[A6G]_F3.1_[A8T]_T3.1 (ssRNA) RNA: UUUGAUUAAUAUGAUAUCGUUCUUUCUUGUAUGUUUUCUUUCUCGAUAUCAUAUUAAUCUUU | 22.5 nM
3 | Ib_S2_P3E.1_K3.1_C3.1_H3.1_A3.1_[A6T]_F3.1_[A8T]_T3.1 (ssRNA) RNA: UUUGAUUAAUAUGAUAUCGUUCUUUCUUGUAUUUUUUCUUUCUCGAUAUCAUAUUAAUCUUU | 10.5 nM
4 | Ic_S2_P3E.1_K3.1_C3.1_H3.1_A3.1_[A6C]_F3.1_[A8T]_T3.1 (ssRNA) RNA: UUUGAUUAAUAUGAUAUCGUUCUUUCUUGUAUCUUUUCUUUCUCGAUAUCAUAUUAAUCUUU | 9.3 nM
5 | Ie_S2_P4E.1_K4.1_C4.1_H4.1_A4.1_[+5CTC]_F4.1_T4.1 (ssRNA) RNA: UUUGAUUAAUAUGAUAUCGUUCUUUCUUGUAUCUCAUUAUUCUUUCUCGAUAUCAUAUUAAUCUUU | 26.1 nM
6 | Ie_S2_P4E.1_K4.1_C4.1_H4.1_A4.1_[+5TTC]_F4.1_T4.1 (ssRNA) RNA: UUUGAUUAAUAUGAUAUCGUUCUUUCUUGUAUUUCAUUAUUCUUUCUCGAUAUCAUAUUAAUCUUU | 29.9 nM
7 | Ie_S2_P4E.1_K4.1_C4.1_H4.1_A4.1_[+6CCT]_F4.1_T4.1 (ssRNA) RNA: UUUGAUUAAUAUGAUAUCGUUCUUUCUUGUAUACCUUUAUUCUUUCUCGAUAUCAUAUUAAUCUUU | 12.7 nM
8 | Ie_S2_P4E.1_K4.1_C4.1_H4.1_A4.1_F4.1_[+8CCT]_T4.1 (ssRNA) RNA: UUUGAUUAAUAUGAUAUCGUUCUUUCUUGUAUAUUCCUAUUCUUUCUCGAUAUCAUAUUAAUCUUU | 3.9 nM
9 | Ie_S2_P4E.1_K4.1_C4.1_H4.1_A4.1_[+6TTT]_F4.1_T4.1 (ssRNA) RNA: UUUGAUUAAUAUGAUAUCGUUCUUUCUUGUAUAUUUUUAUUCUUUCUCGAUAUCAUAUUAAUCUUU | 3.88 nM
10 | Ie_S2_P4E.1_K4.1_C4.1_H4.1_A4.1_[+5TCC]_F4.1_T4.1 (ssRNA) RNA: UUUGAUUAAUAUGAUAUCGUUCUUUCUUGUAUUCCAUUAUUCUUUCUCGAUAUCAUAUUAAUCUUU | 46.4 nM
11 | Ie_S2_P4E.1_K4.1_C4.1_H4.1_A4.1_F4.1_[+8CTC]_T4.1 (ssRNA) RNA: UUUGAUUAAUAUGAUAUCGUUCUUUCUUGUAUAUUCUCAUUCUUUCUCGAUAUCAUAUUAAUCUUU | 5.23 nM
12 | Ie_S2_P4E.1_K4.1_C4.1_H4.1_A4.1_[+7CCT]_F4.1_T4.1 (ssRNA) RNA: UUUGAUUAAUAUGAUAUCGUUCUUUCUUGUAUAUCCUUAUUCUUUCUCGAUAUCAUAUUAAUCUUU | 10.6 nM
13 | Ie_S2_P4E.1_K4.1_C4.1_H4.1_A4.1_[+7CTC]_F4.1_T4.1 (ssRNA) RNA: UUUGAUUAAUAUGAUAUCGUUCUUUCUUGUAUAUCUCUAUUCUUUCUCGAUAUCAUAUUAAUCUUU | 8.21 nM
14 | Ie_S2_P4E.1_K4.1_C4.1_H4.1_A4.1_[+7CCC]_F4.1_T4.1 (ssRNA) RNA: UUUGAUUAAUAUGAUAUCGUUCUUUCUUGUAUAUCCCUAUUCUUUCUCGAUAUCAUAUUAAUCUUU | 13.5 nM
15 | Ie_S2_P4E.1_K4.1_C4.1_H4.1_A4.1_F4.1_[+8CTT]_T4.1 (ssRNA) RNA: UUUGAUUAAUAUGAUAUCGUUCUUUCUUGUAUAUUCUUAUUCUUUCUCGAUAUCAUAUUAAUCUUU | 4.6 nM
16 | Ie_S2_P4E.1_K4.1_C4.1_H4.1_A4.1_F4.1_[+8C]_T4.1 (ssRNA) RNA: UUUGAUUAAUAUGAUAUCGUUCUUUCUUGUAUAUUCAUUCUUUCUCGAUAUCAUAUUAAUCUUU | 6.81 nM
17 | Ie_S2_P4E.1_K4.1_C4.1_H4.1_[+4CCCTT]_A4.1_F4.1_T4.1 (ssRNA) RNA: UUUGAUUAAUAUGAUAUCGUUCUUUCUUGUACCCUUUAUUAUUCUUUCUCGAUAUCAUAUUAAUCUUU | 5.28 nM
18 | Ie_S2_P4E.1_K4.1_C4.1_H4.1_A4.1_[+7CTCTC]_F4.1_T4.1 (ssRNA) RNA: UUUGAUUAAUAUGAUAUCGUUCUUUCUUGUAUAUCUCUCUAUUCUUUCUCGAUAUCAUAUUAAUCUUU | 9 nM
19 | Ie_S2_P4E.1_K4.1_C4.1_H4.1_A4.1_[+6CCCTT]_F4.1_T4.1 (ssRNA) RNA: UUUGAUUAAUAUGAUAUCGUUCUUUCUUGUAUACCCUUUUAUUCUUUCUCGAUAUCAUAUUAAUCUUU | 20.8 nM
20 | Ie_S2_P5E.1_K5.1_C5.1_H5.1_A5.1_[+5CCTC]_F5.1_T5.1 (ssRNA) RNA: UUUGAUUAAUAUGAUAUCGUUCUUUCUUGUAUCCUCUAUUAUUCUUUCUCGAUAUCAUAUUAAUCUUU | 10.2 nM
21 | Ie_S2_P4E.1_K4.1_C4.1_H4.1_A4.1_[+6CTCTC]_F4.1_T4.1 (ssRNA) RNA: UUUGAUUAAUAUGAUAUCGUUCUUUCUUGUAUACUCUCUUAUUCUUUCUCGAUAUCAUAUUAAUCUUU | 6.56 nM

Row | Binder | Kd
22 | Ie_S2_P5E.1_K5.1_C5.1_H5.1_A5.1_[+5CCCT]_F5.1_T5.1 (ssRNA) RNA: UUUGAUUAAUAUGAUAUCGUUCUUUCUUGUAUCCCUUAUUAUUCUUUCUCGAUAUCAUAUUAAUCUUU | 11.9 nM
23 | Ie_S2_P4E.1_K4.1_C4.1_H4.1_A4.1_[+5TCTCT]_F4.1_T4.1 (ssRNA) RNA: UUUGAUUAAUAUGAUAUCGUUCUUUCUUGUAUUCUCUAUUAUUCUUUCUCGAUAUCAUAUUAAUCUUU | 7.74 nM
24 | Ie_S2_P5E.1_K5.1_C5.1_H5.1_A5.1_[+5TTCC]_F5.1_T5.1 (ssRNA) RNA: UUUGAUUAAUAUGAUAUCGUUCUUUCUUGUAUUUCCUAUUAUUCUUUCUCGAUAUCAUAUUAAUCUUU | 7.16 nM
25 | Ie_S2_P5E.1_K5.1_C5.1_H5.1_A5.1_[+6CTC]_F5.1_T5.1 (ssRNA) RNA: UUUGAUUAAUAUGAUAUCGUUCUUUCUUGUAUUCUCAUUAUUCUUUCUCGAUAUCAUAUUAAUCUUU | 18.7 nM
26 | Ie_S2_P4E.1_K4.1_C4.1_H4.1_A4.1_[+6CCCT]_F4.1_T4.1 (ssRNA) RNA: UUUGAUUAAUAUGAUAUCGUUCUUUCUUGUAUACCCUUUAUUCUUUCUCGAUAUCAUAUUAAUCUUU | 26.5 nM
27 | Ie_S2_P4E.1_K4.1_C4.1_H4.1_A4.1_[+6CTCT]_F4.1_T4.1 (ssRNA) RNA: UUUGAUUAAUAUGAUAUCGUUCUUUCUUGUAUACUCUUUAUUCUUUCUCGAUAUCAUAUUAAUCUUU | 6.3 nM
28 | Ie_S2_P4E.1_K4.1_C4.1_H4.1_A4.1_[+7CTCT]_F4.1_T4.1 (ssRNA) RNA: UUUGAUUAAUAUGAUAUCGUUCUUUCUUGUAUAUCUCUUAUUCUUUCUCGAUAUCAUAUUAAUCUUU | 12.8 nM
29 | Ie_S2_P4E.1_K4.1_C4.1_H4.1_A4.1_[+7CCTC]_F4.1_T4.1 (ssRNA) RNA: UUUGAUUAAUAUGAUAUCGUUCUUUCUUGUAUAUCCUCUAUUCUUUCUCGAUAUCAUAUUAAUCUUU | 12.2 nM
30 | Ie_S2_P4E.1_K4.1_C4.1_H4.1_A4.1_[+5TTCC]_F4.1_T4.1 (ssRNA) RNA: UUUGAUUAAUAUGAUAUCGUUCUUUCUUGUAUUUCCAUUAUUCUUUCUCGAUAUCAUAUUAAUCUUU | 47.7 nM
31 | Ie_S2_P4E.1_K4.1_C4.1_H4.1_A4.1_[+6CCTC]_F4.1_T4.1 (ssRNA) RNA: UUUGAUUAAUAUGAUAUCGUUCUUUCUUGUAUACCUCUUAUUCUUUCUCGAUAUCAUAUUAAUCUUU | 14.8 nM
32 | Ie_S2_P4E.1_K4.1_C4.1_H4.1_A4.1_[+7CCCT]_F4.1_T4.1 (ssRNA) RNA: UUUGAUUAAUAUGAUAUCGUUCUUUCUUGUAUAUCCCUUAUUCUUUCUCGAUAUCAUAUUAAUCUUU | 10.1 nM
33 | Ie_S2_P4E.1_K4.1_C4.1_H4.1_A4.1_F4.1_[+8CTCT]_T4.1 (ssRNA) RNA: UUUGAUUAAUAUGAUAUCGUUCUUUCUUGUAUAUUCUCUAUUCUUUCUCGAUAUCAUAUUAAUCUUU | 4.74 nM
34 | Ie_S2_P4E.1_K4.1_C4.1_H4.1_A4.1_[+5CC]_F4.1_T4.1 (ssRNA) RNA: UUUGAUUAAUAUGAUAUCGUUCUUUCUUGUAUCCAUUAUUCUUUCUCGAUAUCAUAUUAAUCUUU | 20.2 nM
35 | Ie_S2_P5E.1_K5.1_C5.1_H5.1_A5.1_[+6C]_F5.1_T5.1 (ssRNA) RNA: UUUGAUUAAUAUGAUAUCGUUCUUUCUUGUAUUCAUUAUUCUUUCUCGAUAUCAUAUUAAUCUUU | 25.6 nM
36 | Ie_S2_P4E.1_K4.1_C4.1_H4.1_A4.1_[+6TC]_F4.1_T4.1 (ssRNA) RNA: UUUGAUUAAUAUGAUAUCGUUCUUUCUUGUAUAUCUUAUUCUUUCUCGAUAUCAUAUUAAUCUUU | 4.55 nM
37 | Ie_S2_P4E.1_K4.1_C4.1_H4.1_A4.1_F4.1_[+8CT]_T4.1 (ssRNA) RNA: UUUGAUUAAUAUGAUAUCGUUCUUUCUUGUAUAUUCUAUUCUUUCUCGAUAUCAUAUUAAUCUUU | 3.57 nM
38 | Ie_S2_P4E.1_K4.1_C4.1_H4.1_A4.1_[+7TT]_F4.1_T4.1 (ssRNA) RNA: UUUGAUUAAUAUGAUAUCGUUCUUUCUUGUAUAUUUUAUUCUUUCUCGAUAUCAUAUUAAUCUUU | 2.3 nM
39 | Ie_S2_P4E.1_K4.1_C4.1_H4.1_A4.1_F4.1_[+8CC]_T4.1 (ssRNA) RNA: UUUGAUUAAUAUGAUAUCGUUCUUUCUUGUAUAUUCCAUUCUUUCUCGAUAUCAUAUUAAUCUUU | 5.04 nM
40 | Ie_S2_P4E.1_K4.1_C4.1_H4.1_A4.1_[+6CT]_F4.1_T4.1 (ssRNA) RNA: UUUGAUUAAUAUGAUAUCGUUCUUUCUUGUAUACUUUAUUCUUUCUCGAUAUCAUAUUAAUCUUU | 3.75 nM
41 | Ie_S2_P4E.1_K4.1_C4.1_H4.1_A4.1_F4.1_[+8TC]_T4.1 (ssRNA) RNA: UUUGAUUAAUAUGAUAUCGUUCUUUCUUGUAUAUUUCAUUCUUUCUCGAUAUCAUAUUAAUCUUU | 6.93 nM
42 | Ie_S2_P4E.1_K4.1_C4.1_H4.1_A4.1_[+7CC]_F4.1_T4.1 (ssRNA) RNA: UUUGAUUAAUAUGAUAUCGUUCUUUCUUGUAUAUCCUAUUCUUUCUCGAUAUCAUAUUAAUCUUU | 11.7 nM
